Assay results from PMC9226187, “Probing TDP-43 condensation using an in silico designed aptamer”.

Target: TDP-43 RRM1-2 (UniProt Q13148 102-269)
Assay: BLI; BLI: 10 mM potassium phosphate pH 7.2, 150 mM KCl, 0.01% Tween20, 25 °C; biotin-RNA on streptavidin sensors, protein 20 nM-20 µM; PAINT in PBS
Conditions: protein: recombinant, tags: His6-SUMO tag cleaved (TEV)

Chain of TDP-43 RRM1-2 (Q13148 102-269): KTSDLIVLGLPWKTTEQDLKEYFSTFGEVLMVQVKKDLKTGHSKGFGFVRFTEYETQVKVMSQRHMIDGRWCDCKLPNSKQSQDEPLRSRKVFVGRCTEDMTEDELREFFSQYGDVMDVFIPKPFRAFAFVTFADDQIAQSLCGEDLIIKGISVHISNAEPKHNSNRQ

Binder: AGCAACACCG (ssRNA) [nApt-1]
- Kd (label: 5' biotin): 1.73 µM

Binder: CGGUGUUGCU (ssRNA) [Apt-1]
- Kd (label: 3' biotin, linear, single-stranded): 0.1 ± 0.01 µM
